Measurements: article PMC3407216

Legend:
[1] = target: Matrix metalloproteinase-2 (human (endogenous in tumor cells)) (UniProt P08253)
[2] = target: MMP-2–cleaved fibronectin (human)

αvβ3 integrin, sequence (P05106 whole entry, looked up): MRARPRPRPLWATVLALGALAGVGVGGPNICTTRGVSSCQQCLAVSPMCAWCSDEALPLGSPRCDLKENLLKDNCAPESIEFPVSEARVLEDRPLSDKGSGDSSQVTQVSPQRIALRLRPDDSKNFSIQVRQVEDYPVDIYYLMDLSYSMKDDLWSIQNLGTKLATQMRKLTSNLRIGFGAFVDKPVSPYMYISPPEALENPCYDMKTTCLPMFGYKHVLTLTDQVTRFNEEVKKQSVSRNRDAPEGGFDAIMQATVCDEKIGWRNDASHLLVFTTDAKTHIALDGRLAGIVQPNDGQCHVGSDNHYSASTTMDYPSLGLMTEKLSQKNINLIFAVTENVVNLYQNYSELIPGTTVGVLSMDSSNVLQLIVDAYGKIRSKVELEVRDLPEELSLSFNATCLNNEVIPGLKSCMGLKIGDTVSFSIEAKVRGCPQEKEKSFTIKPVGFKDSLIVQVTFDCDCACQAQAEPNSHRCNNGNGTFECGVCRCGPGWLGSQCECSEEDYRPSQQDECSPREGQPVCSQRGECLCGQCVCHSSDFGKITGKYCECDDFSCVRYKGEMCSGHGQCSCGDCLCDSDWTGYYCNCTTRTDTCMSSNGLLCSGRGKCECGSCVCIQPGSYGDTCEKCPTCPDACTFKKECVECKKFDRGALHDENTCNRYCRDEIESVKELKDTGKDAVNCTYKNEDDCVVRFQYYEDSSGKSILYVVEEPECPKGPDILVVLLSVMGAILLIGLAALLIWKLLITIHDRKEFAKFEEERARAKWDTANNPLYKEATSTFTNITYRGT
UniProt P08253, sequence (P08253 30-660): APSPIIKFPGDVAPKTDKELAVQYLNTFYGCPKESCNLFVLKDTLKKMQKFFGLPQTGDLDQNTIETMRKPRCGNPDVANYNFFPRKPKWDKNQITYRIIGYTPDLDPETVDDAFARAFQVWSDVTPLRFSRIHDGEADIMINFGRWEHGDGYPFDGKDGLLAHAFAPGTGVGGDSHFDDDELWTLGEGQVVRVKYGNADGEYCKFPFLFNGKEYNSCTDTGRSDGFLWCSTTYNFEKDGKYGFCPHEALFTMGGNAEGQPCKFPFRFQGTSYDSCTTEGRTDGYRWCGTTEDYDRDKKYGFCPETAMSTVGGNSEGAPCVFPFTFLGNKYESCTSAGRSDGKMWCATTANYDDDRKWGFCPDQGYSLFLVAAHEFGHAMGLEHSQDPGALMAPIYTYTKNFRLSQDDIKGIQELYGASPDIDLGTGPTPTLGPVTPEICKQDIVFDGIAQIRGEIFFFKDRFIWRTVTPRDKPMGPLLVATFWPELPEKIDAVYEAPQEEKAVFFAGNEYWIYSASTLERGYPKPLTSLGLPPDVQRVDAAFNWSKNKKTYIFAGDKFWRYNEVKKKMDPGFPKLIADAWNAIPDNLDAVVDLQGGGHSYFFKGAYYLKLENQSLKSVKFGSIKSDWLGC

static adhesion of fluorescently stained A375 cells to wells coated with APMA-activated recombinant human MMP-2, compared with cells blocked with RGD peptides [1]: > 59%
adhesion of M21 melanoma cells (30 min) to plates coated with MMP-2–cleaved fibronectin compared with full-length fibronectin; no obvious changes with M21-L cells that lack αvβ3 integrin [2]: > 34%
Substance: αvβ3 integrin (from UniProt P05106 27-788) (receptor)
